In test [1] the target is M44-modified F NTAA target peptides (M44-F-P2-peptide). Nature of the test: Gini coefficient of P2 tolerance from multiplex encoding heatmap.
Test [2] has the same target. Nature of the test: Gini coefficient of P1 selectivity from multiplex encoding heatmap.
Test [3] deals with M90-modified H NTAA target peptide. Nature of the test: affinity comparison between P1 residues (method not specified; BLI / encoding assay).
Test [4] deals with M44-modified L NTAA target peptides (M44-L-P2-peptide). Nature of the test: Gini coefficient of P2 tolerance from multiplex encoding heatmap.
Test [5] has the same target. Nature of the test: Gini coefficient of P1 selectivity from multiplex encoding heatmap.
The target of test [6] is M44-modified I NTAA target peptides (M44-I-P2-peptide). In words: Gini coefficient of P2 tolerance from multiplex encoding heatmap.
The target is the same in test [7]. Nature of the test: Gini coefficient of P1 selectivity from multiplex encoding heatmap.
The target of test [8] is M44-modified A NTAA target peptides (M44-A-P2-peptide). In words: Gini coefficient of P2 tolerance from multiplex encoding heatmap.
Test [9] has the same target. Nature of the test: Gini coefficient of P1 selectivity from multiplex encoding heatmap.
The target in test [10] is M48-modified F NTAA target peptides (M48-F-P2-peptide). Nature of the test: Gini coefficient of P2 tolerance from multiplex encoding heatmap.
For test [11] the target is unchanged. In words: Gini coefficient of P1 selectivity from multiplex encoding heatmap.
For test [12], the target named is M90-modified M NTAA target peptide. In words: affinity comparison between P1 residues (method not specified; BLI / encoding assay).
Test [13] concerns the target M90-modified W NTAA target peptide. Described as above.

B1: SEQ ID NO 44 (designed binder, not shown: small tags and cut ends; large carriers)
chain: TVPDRSEIAGKWYVVALASNTEFFLREKDRIKTAMARISFLGEDELKVSLARPAPNGCHKAEWTFKKTSDDGEVYTSFLAKFKVEVLDTDYKSYAVIYATPVKDGRTRHEMLLYSRSPEVSPAATAIFRKLAGERNYTDEMVAMLPRQEECTVDEV
In the case of B1, the P2 score in test [1] stood at 0.485. Further, the P1 score in [2] was 0.241.

B2: SEQ ID NO 55 (designed binder, not shown: small tags and cut ends; large carriers)
chain: QIPLCANLVPVPITNATLDRITGKWFRIASAFRNEEYKKSVQEVQTTSFYFTPNKTEDTIFARFYQTRQNQCFYNSSYLNVQRENGTVSLYSGGREAVLHLLFLRDTKTLMLGVYLDDEKNWGLSFYADKPETTKEQLGEFYEALDCLRIPRSDVMYTDWKKDKCEPLEKQHEKERKQEEGES
In [3], B2 showed a fold affinity over an otherwise identical peptide with a different P1 of 2 fold.

B3: SEQ ID NO 39 (designed binder, not shown: small tags and cut ends; large carriers)
chain: QVSVQPNFQQDKFLGRWFLAGLASNSSWAREKIAALSDAKFVVAPATDGGLNGTVTVLRKNQCETATGLLQPAGSLGSYSWRSPHDGSTLSLSVVETDYDQYALVYEQGSKGPGEDLRIAALWSRTQTPRAELKEKFTAFSKAQGFTEDTIVFLPQTDKCMTEQ
B3 had a P2 score in test [4] of 0.426. This molecule also yielded a P1 score in test [5] of 0.286.

B4: SEQ ID NO 22 (designed binder, not shown: small tags and cut ends; large carriers)
chain: QVSVQPNFQQDKFLGRWFTAGLASNSSWLREKFAALSHAKTVVAPATDGGLNLTVTVLRKNQCETSTLLLQPAGSLGSYSRRSPHVGSTGSVSVVETDYDQYALIYDQGSKGPGEDWRIAELVSRTQTPRAELKEKFTAFSKAQGFTEDTIVFLPQTDKCMTEQ
B4 gave a P2 score in [4] of 0.431. Moreover, in test [5], the P1 score amounted to 0.418.

B5: SEQ ID NO 41 (designed binder, not shown: small tags and cut ends; large carriers)
chain: QVSVQPNFQQDKFLGRWFYAGMASNSSWLREKSAALSAAKFVVAPATDGGLNFTETFLRKNQCETTTILLQPAGSLGSYSVRSPHVGSTVSISVVETDYDQYALFYVQGSKGPGEDNRMALLGSRTQTPRAELKEKFTAFSKAQGFTEDTIVFLPQTDKCMTEQ
B5: the P2 score in test [6] worked out at 0.217. Further, the P1 score in [7] is 0.323.

B6: SEQ ID NO 37 (designed binder, not shown: small tags and cut ends; large carriers)
chain: QDSTQNLIPAPPLISVPLQPGFWTERFQGRWFLVGLAGNAVQKERQSRRTMSSLILELQEDNSYNETWINVRGQGCRYRIGTVVPSSRPGQFTLGNIHSYPQIQSLDVQVADTDYDQFAMVFTQFTSENKQYFYVRLMGRTKGLSDELKERFVSFAKSLGLKDNNIVFSVPTDQCIDN
With B6, in [8], the P2 score was 0.195. The P1 score in test [9] was determined as 0.319.

B7: SEQ ID NO 29 (designed binder, not shown: small tags and cut ends; large carriers)
chain: QVSVQPNFQQDKFLGRWFVAGVASNSSWMREKVAALSGAKVVVAPATDGGLNYTETWLRKNQCETWTGLLQPAGSLGSYSQRSPHGGSTNSLSVVETDYDQYALLYVQGSKGPGEDPRVAVLWSRTQTPRAELKEKFTAFSKAQGFTEDTIVFLPQTDKCMTEQ
With B7, in test [10], the P2 score came to 0.387. In addition, in [11], the P1 score came out at 0.189.

B8: SEQ ID NO 40 (designed binder, not shown: small tags and cut ends; large carriers)
chain: QVSVQPNFQQDKFLGRWFYAGLASNSSWIREKYAALSLAKSVVAPATDGGLNWTETSLRKNQCETGTVLLQPAGSLGSYSLRSPHHGSTISVSVVETDYDQYALVYRQGSKGPGEDSRRAILMSRTQTPRAELTEKFTAFSKAQGFTEDTIVFLPQTDKCMTEQ
In the case of B8, in test [6], the P2 score was 0.144. For the same molecule, the P1 score in test [7] worked out at 0.357.

B9: SEQ ID NO 47 (designed binder, not shown: small tags and cut ends; large carriers)
chain: TVPDRSEIAGKWYVVALASNTEFFLREKDNFKMAMARISFLGEDELKVSEAVPTPNGCFKAEFTGKKTSDDGEVYWSQTAKYKVEVLDTDYKSYAVIYATNVKDGRTVHAMNLYSRSPEVSPAATAIFRKLAGERNYTDEMVAMLPRQEECTVDEV
Take B9: the P2 score in test [8] was 0.466. Moreover, the P1 score in [9] was determined as 0.173.

B10: SEQ ID NO 56 (designed binder, not shown: small tags and cut ends; large carriers)
chain: QIPLCANLVPVPITNATLDRITGKWFLIASAIRNEEYNKSVQAVQSTAFYWTPNKTEDTIFARYYQTRQNQCFYNSSYLNVQRENGTVSWYAGGREFVSHLLFLRYTKTLMWGGYLDDEKNWGLEFYADKPETTKEQLGEFYEALDCLRIPRSDVMYTDWKKDKCEPLEKQHEKERKQEEGES
Take B10: the fold affinity over an otherwise identical peptide with a different P1 in [12] is > 2 fold.

B11: SEQ ID NO 43 (designed binder, not shown: small tags and cut ends; large carriers)
chain: TVPDRSEIAGKWYVVALASNTEFVLREKDWLKLAMARISFLGEDELKVSMTTPGPNGCTKWERTLKKTSDDGEVYSSPRAKEKVEVLDTDYKSYAVIYATAVKDGRTLHEMWLYSRSPEVSPAATAIFRKLAGERNYTDEMVAMLPRQEECTVDEV
Consider B11, for which the P2 score in test [1] was determined as 0.359. Also, the P1 score in test [2] came to 0.408.

B12: SEQ ID NO 32 (designed binder, not shown: small tags and cut ends; large carriers)
chain: QDSTQNLIPAPPLISVPLQPGFWTERFQGRWFSVGMAGNAVQKERQSRFTMGSCIMELQEDNSYNLTFIGVRGQGCRYRILTWVPSSRPGQFTLGNIHSYPQIQSADVQVADTDYDQFAMVFWQTTSENKQYFAVELWGRTKGLSDELKERFVSFAKSLGLKDNNIVFSVPTDQCIDN
B12 yielded a P2 score in test [1] of 0.379. Also, the P1 score in [2] came to 0.173.

B13: SEQ ID NO 26 (designed binder, not shown: small tags and cut ends; large carriers)
chain: QVSVQPNFQQDKFLGRWFAAGYASNSSWRRERSAALSMAKVVVAPATDGGLNWTETILRKNQCETATNLLQPAGSLGSYSIRSPHAGSTSSMSVVETDYDQYALLYAQGSKGPGEDFRLAILLSRTQTPRAELKEKFTAFSKAQGFTEDTIVFLPQTDKCMTEQ
For B13, the P2 score in test [4] was found to be 0.498. The molecule further gave a P1 score in test [5] of 0.501.

B14: SEQ ID NO 38 (designed binder, not shown: small tags and cut ends; large carriers)
chain: QVSVQPNFQQDKFLGRWFPAGFASNSSWDREKPAALSLAKMVVAPATDGGLNWTETYLRKNQCETTTHLLQPAGSLGSYSYRSPHFGSTRSLSVVETDYDQYALFYSQGSKGPGEDHRGAWLLSRTQTPRAELKEKFTAFSKAQGFTEDTIVFLPQTDKCMTEQ
In turn, B14 had a P2 score in test [4] of 0.251. The P1 score in [5] came out at 0.403.

B15: SEQ ID NO 36 (designed binder, not shown: small tags and cut ends; large carriers)
chain: QDSTQNLIPAPPLISVPLQPGFWTERFQGRWFIVGAAGNAVQKERQSRVTMGSVIWELQEDNSYNLTFISVRGQGCRYWIETWVPSSRPGQFTLGNIHSYPQIQSADVQVADTDYDQFAMVFVQYTSENKQYFMVRLLGRTKGLSDELKERFVSFAKSLGLKDNNIVFSVPTDQCIDN
In turn, B15 gave a P2 score in test [6] of 0.197. Besides, the P1 score in [7] was determined as 0.326.

B16: SEQ ID NO 52 (designed binder, not shown: small tags and cut ends; large carriers)
chain: QIPLCANLVPVPITNATLDRITGKWFIIASASRNEEYNKSVQQAQSTAFYITPNKTEDTIFLRRYQTRQNQCFYNSSYLNVQRENGTVSYYRGGRERVSHLLFLRDTKTLMIGSYLDDEKNWGLVFGADKPETTKEQLGEFYEALDCLRIPRSDVMYTDWKKDKCEPLEKQHEKERKQEEGES
With B16, the fold affinity over an otherwise identical peptide with a different P1 in [13] was > 2 fold.

B17: SEQ ID NO 30 (designed binder, not shown: small tags and cut ends; large carriers)
chain: QDSTQNLIPAPPLISVPLQPGFWTERFQGRWFNVGIAGNAVQKERQSRFTMLSLISELQEDNSYNWTLISVRGQGCRYRILTWVPSSRPGQFTLGNIHSYPQIQSLDVQVADTDYDQFAMVFAQGTSENKQYFEVILMGRTKGLSDELKERFVSFAKSLGLKDNNIVFSVPTDQCIDN
For B17, the P2 score in test [1] is 0.378. The molecule further gave a P1 score in test [2] of 0.433.

B18: SEQ ID NO 25 (designed binder, not shown: small tags and cut ends; large carriers)
chain: QVSVQPNFQQDKFLGRWFIAGLASNSSWVREKSAALSQAKVVVAPATDGGLNVTVTVLRKNQCETYTVLLQPAGSLGSYSSRSPHFGSTVSLSVVETDYDQYALWYAQGSKGPGEDMRHAELWSRTQTPRAELKEKFTAFSKAQGFTEDTIVFLPQTDKCMTEQ
With B18, the P2 score in [4] amounted to 0.543. The molecule also had a P1 score in test [5] of 0.478.

B19: SEQ ID NO 28 (designed binder, not shown: small tags and cut ends; large carriers)
chain: QVSVQPNFQQDKFLGRWFLAGMASNSSWMREKFAALSVAKFVVAPATDGGLNTTTTLLRKNQCETFTRLLQPAGSLGSYSSRSPHLGSTVSGSVVETDYDQYALLYEQGSKGPGEDGRKAWLGSRTQTPRAELKEKFTAFSKAQGFTEDTIVFLPQTDKCMTEQ
Molecule B19 returned a P2 score in test [10] of 0.318. Also, in [11], the P1 score came out at 0.392.

B20: SEQ ID NO 23 (designed binder, not shown: small tags and cut ends; large carriers)
chain: QVSVQPNFQQDKFLGRWFLAGAASNSSWLREKNAALSYAKLVVAPATDGGLNSTVTRLRKNQCETETRLLQPAGSLGSYSWRSPHLGSTLSLSVVETDYDQYALVYAQGSKGPGEDVRGAELLSRTQTPRAELKEKFTAFSKAQGFTEDTIVFLPQTDKCMTEQ
B20 gave a P2 score in [1] of 0.456. In test [2], this molecule registered a P1 score of 0.387.

B21: SEQ ID NO 24 (designed binder, not shown: small tags and cut ends; large carriers)
chain: QVSVQPNFQQDKFLGRWFYAGLASNSSWLREKCAALSSAKAVVAPATDGGLNVTETWLRKNQCETGTELLQPAGSLGSYSFRSPHRGSTLSLSVVETDYDQYALLYRQGSKGPGEDERRALLMSRTQTPRAELKEKFTAFSKAQGFTEDTIVFLPQTDKCMTEQ
In test [4], B21 showed a P2 score of 0.375. Further, the P1 score in test [5] stood at 0.452.

B22: SEQ ID NO 46 (designed binder, not shown: small tags and cut ends; large carriers)
chain: TVPDRSEIAGKWYVVALASNTEFHLREKDNLKVAMARISFLGEDELKVSEAVPTPNGCMKHESTWKKTSDDGEVYRSRKAKQKVEVLDTDYKSYAVIYATRVKDGRTHHWMLLYSRSPEVSPAATAIFRKLAGERNYTDEMVAMLPRQEECTVDEV
Molecule B22 registered a P2 score in test [4] of 0.289. This molecule came in with a P1 score in [5] of 0.225.

(Values after patent US20230220589A1.)
